According to patent publication CN117043185A (NUMAB INNOVATION AG, dated 2023):
Values belong to the binder of their own block, whether it stands above or below them.

Target: T1, human ROR1 expressed on cells (MDA-MB-231, JIMT-1, CLL patient cells) (human, UniProt Q01973 30-937)
T1 construct: whole, on cells; also called hROR1; plasma-membrane human ROR1
Experiment: flow cytometry on MDA-MB-231 cells

T1 sequence (Q01973 30-937): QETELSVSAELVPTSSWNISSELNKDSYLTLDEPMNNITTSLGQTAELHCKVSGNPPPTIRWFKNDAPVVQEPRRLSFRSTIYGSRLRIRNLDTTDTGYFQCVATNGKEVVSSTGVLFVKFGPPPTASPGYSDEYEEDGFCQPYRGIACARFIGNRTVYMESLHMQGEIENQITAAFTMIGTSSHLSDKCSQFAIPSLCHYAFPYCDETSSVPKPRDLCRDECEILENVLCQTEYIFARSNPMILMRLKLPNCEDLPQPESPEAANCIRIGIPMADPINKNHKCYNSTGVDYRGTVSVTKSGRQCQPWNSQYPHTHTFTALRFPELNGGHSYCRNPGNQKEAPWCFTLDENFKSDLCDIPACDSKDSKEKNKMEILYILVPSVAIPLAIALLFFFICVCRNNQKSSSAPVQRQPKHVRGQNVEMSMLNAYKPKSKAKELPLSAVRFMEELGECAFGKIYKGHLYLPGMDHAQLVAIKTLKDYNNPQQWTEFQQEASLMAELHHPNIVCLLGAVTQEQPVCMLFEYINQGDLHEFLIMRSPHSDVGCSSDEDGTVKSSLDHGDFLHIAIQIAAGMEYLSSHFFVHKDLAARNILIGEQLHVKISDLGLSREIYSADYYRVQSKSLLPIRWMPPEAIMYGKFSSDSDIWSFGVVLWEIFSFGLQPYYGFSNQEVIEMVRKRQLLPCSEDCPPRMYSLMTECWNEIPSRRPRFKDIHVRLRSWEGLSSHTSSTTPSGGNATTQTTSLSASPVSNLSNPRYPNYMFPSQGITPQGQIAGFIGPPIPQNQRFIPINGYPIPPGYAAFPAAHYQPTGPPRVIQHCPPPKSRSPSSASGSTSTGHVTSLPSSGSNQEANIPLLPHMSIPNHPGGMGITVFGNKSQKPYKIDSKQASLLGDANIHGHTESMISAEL

fold lower apparent binding affinity than reference Fab PRO2213: ~3 fold
B1: PRO2060 (scFv, V domains shown)
VH: QSQVVESGGGLVQPGGSLRLSCAVSGFDLSSYAVSWVRQAPGKGLEWIGIIYPRANTYYASWAKGRFTISKDNSKNTVYLQMNSLRAEDTAVYFCARDRYDSGAYLYTTYFNLWGQGTLVTVSS
VL: DVQMTQSPSSLSASVGDRVTITCRASENIYSGLAWYQQKPGKPPKLLIYRASTLASGVSSRFSGSGSGTDFTLTISSLQPEDFATYYCQGGYYSSSSTYIAFGTGTKVTVLG

fold higher apparent binding affinity than reference Fab PRO2213: ~3 fold
B2: PRO2062 (scFv, V domains shown)
VH: QSQLVESGGGLVQPGGSLRLSCAVSGLSLSRNAMSWVRQAPGKGLEWIGIILTSGSTYYASWAKGRFTISKDNSKNTVYLQMNSLRAEDTAVYFCVRGIASSSLKSFWGQGTLVTVSS
VL: AQQLTQSPSSLSASVGDRVTITCQASQNVWNNNYLSWFQQKPGKPPKLLIVTASTLASGVSSRFSGSGSGTDFTLTISSLQPEDFATYYCAGGFSGEIRAFGTGTKVTVLG

fold lower apparent binding affinity than original scFv PRO2062: ~2 fold
B3: PRO2271 (scFv, V domains shown)
VH: QSQLVESGGGLVQPGGSLRLSCAVSGIDLSRNAMSWVRQAPGKGLEWIGIILTSGSTYYASWAKGRFTISKTSTTLDLQMNSLRAEDTAVYFCVRGIASSSLKSFWGQGTLVTVSS
VL: AQQLTQSPSSLSASVGDRVTITCQASQNVWNNNYLSWFQQKPGKPPKLLIVTASTLASGVSSRFSGSGSGTDFTLTISSLQPEDFATYYCAGGFSGEIRAFGTGTKVTVLG
